According to PMC7954794, “Protein context shapes the specificity of SH3 domain-mediated interactions in vivo” (Nature Communications, 2021):

System: 575 putative partners (preys) of 22 WT SH3-containing proteins
Assay: DHFR-PCA on solid medium, WT and SH3-deleted baits (Fig. 1B)
Assay type: cell-based, Saccharomyces cerevisiae
Set-up: key to Score: 0: SH3-independent; 1: SH3-dependent PPIs; 2: SH3-inhibited PPIs
Details: for medrep (log2 median colony size normalized to plate background, PCA score): label = prey; for SH3-dependent PPIs: number of PPIs, SH3 domain in its own protein, DHFR-PCA, Fig2D,S2F
In short: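 In S. cerevisiae, 22 SH3-containing baits fused genomically to DHFR F[1,2], either WT or with each SH3 replaced via CRISPR by a poly-Gly/Ser linker, screened against 575 DHFR F[3] preys plus 40 negative controls in 1536 arrays, preys duplicated at randomized positions.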

Molecule | medrep (log2 median colony size normalized to plate background, PCA score) (bait SLA1-2, DHFR-PCA, Replicates 4 (2 for YCR009C, YDR388W)) | Score (bait SLA1-2, label = prey) | Ratio (SH3-deleted/WT medrep) (bait SLA1-2, label = prey, only significant differences shown, PPIs completely lost have a ratio of 0.1, gained PPIs 2.5) | medrep (log2 median colony size normalized to plate background, PCA score) (bait SLA1-3, DHFR-PCA, Replicates 4 (2 for YCR009C, YDR388W, YIL033C)) | Score (bait SLA1-3, label = prey) | SH3-dependent PPIs
YBL039C (protein, UniProt P28274 1-579, looked up) CTP synthase 1: MKYVVVSGGVISGIGKGVLASSTGMLMKTLGLKVTSIKIDPYMNIDAGTMSPLEHGECFVLDDGGETDLDLGNYERYLGVTLTKDHNITTGKIYSHVIAKERKGDYLGKTVQIVPHLTNAIQDWIERVAKIPVDDTGMEPDVCIIELGGTVGDIESAPFVEALRQFQFKVGKENFALIHVSLVPVIHGEQKTKPTQAAIKGLRSLGLVPDMIACRCSETLDKPTIDKIAMFCHVGPEQVVNVHDVNSTYHVPLLLLEQKMIDYLHARLKLDEISLTEEEKQRGLELLSKWKATTGNFDESMETVKIALVGKYTNLKDSYLSVIKALEHSSMKCRRKLDIKWVEATDLEPEAQESNKTKFHEAWNMVSTADGILIPGGFGVRGTEGMVLAARWARENHIPFLGVCLGLQIATIEFTRSVLGRKDSHSAEFYPDIDEKNHVVVFMPEIDKETMGGSMRLGLRPTFFQNETEWSQIKKLYGDVSEVHERHRHRYEINPKMVDELENNGLIFVGKDDTGKRCEILELKNHPYYIATQYHPEYTSKVLDPSKPFLGLVAASAGILQDVIEGKYDLEAGENKFNF | 2.2515 | 1 | 0.1 | 2.2515 | 0 | –
CYK3 (protein, UniProt Q07533 1-885, looked up) Cytokinesis protein 3: MATNLTSLKPPFKVKARYGWSGQTKGDLGFLEGDIMEVTRIAGSWFYGKLLRNKKCSGYFPHNFVILLEERLNSSTENGRQPSKIVESFEKSNKVVIPPVPSRYSDERPRPKKKLSSSMPNSPKKPVDSLTKARKAKSKEMVNEKNIYNTQSSRHHNNSAPNLPLASHSKPQVRNFEESMNNPLPPLPPLPDLDNMRKTDKRAPKKSYSANDLHMARSSREYNYYKDNQKFYDGFIPEKRYSLEEDSISSGLFSNSQYLNDSACSSENSFALMSDFSATSAGSFARHKYAQSFSDSLQRSQNANGCSTKINDSQEFGDSNASSRNGKMGDILRKIIIPKRNTNIYSSSVSSPKSPKAYPKLPDIQNLNLSATPDEARDWIAVKCHLNRARTLTKYDKHPRYMRALEENRDLILHPQDSIYNGLNTNEVKGNTKPGLVDVELAELNIEYIDKMTWKRCIRDGTMTLDSWAQTTFSARYSTVLEKLRGIYIFCTEMFALTDDNGTSDFSAEPQNLEKILYRKHCTPYELTWLFKKLANSLGITCEIVIGFLKTPSAINWEFKYNHCWLRILVNKEWRFIDVILGNVTNPIHEFVNNRKIKKAENSYFLMAPLEMIYTHIPPREFEQHIVPSIDQLSALYLPLVFPSFFKNELKLYKFSTALSFLEDSEIYECSLEIPNDVEVFASVVIPTDNEEASSAYRNMELALTQIKKQKAESGRRIALIKAVLPPNVNKGSLYIHSGVRGTQTSIANIHPLSMMVPLTHKGSNMKYEFVIKIPSESIQKIELYIVEPQSRYLFVGNEYSFEVIQSPSDGIVYSSDEGPNQNRKQPMAIKSPSGRVHELVKSDPHFPYGTWKGSIKIKEPGVWSALVIADSGIGWSVFAEWLCV | – | – | – | – | – | 0
FUS1 (protein, UniProt P11710 1-512, looked up) Nuclear fusion protein FUS1: MVATIMQTTTTVLTTVAAMSTTLASNYISSQASSSTSVTTVTTIATSIRSTPSNLLFSNVAAQPKSSSASTIGLSIGLPIGIFCFGLLILLCYFYLKRNSVSISNPPMSATIPREEEYCRRTNWFSRLFWQSKCEDQNSYSNRDIEKYNDTQWTSGDNMSSKIQYKISKPIIPQHILTPKKTVKNPYAWSGKNISLDPKVNEMEEEKVVDAFLYTKPPNIVHIESSMPSYNDLPSQKTVSSKKTALKTSEKWSYESPLSRWFLRGSTYFKDYGLSKTSLKTPTGAPQLKQMKMLSRISKGYFNESDIMPDERSPILEYNNTPLDANDSVNNLGNTTPDSQITSYRNNNIDLITARPHSVIYGTTAQQTLETNFNDHHDCNKSTEKHELIIPTPSKPLKKRKKRRQSKMYQHLQHLSRSKPLPLTPNSKYNGEASVQLGKTYTVIQDYEPRLTDEIRISLGEKVKILATHTDGWCLVEKCNTQKGSIHVSVDDKRYLNEDRGIVPGDCLQEYD | – | – | – | – | – | 0
